Values quoted from earlier work as cited in publication PMC8168288.

Biological target: BCOR peptide (Homo sapiens) (UniProt Q6W2J9)
Experiment: SPR

Sequence of BCOR peptide (Homo sapiens) (Q6W2J9 whole entry): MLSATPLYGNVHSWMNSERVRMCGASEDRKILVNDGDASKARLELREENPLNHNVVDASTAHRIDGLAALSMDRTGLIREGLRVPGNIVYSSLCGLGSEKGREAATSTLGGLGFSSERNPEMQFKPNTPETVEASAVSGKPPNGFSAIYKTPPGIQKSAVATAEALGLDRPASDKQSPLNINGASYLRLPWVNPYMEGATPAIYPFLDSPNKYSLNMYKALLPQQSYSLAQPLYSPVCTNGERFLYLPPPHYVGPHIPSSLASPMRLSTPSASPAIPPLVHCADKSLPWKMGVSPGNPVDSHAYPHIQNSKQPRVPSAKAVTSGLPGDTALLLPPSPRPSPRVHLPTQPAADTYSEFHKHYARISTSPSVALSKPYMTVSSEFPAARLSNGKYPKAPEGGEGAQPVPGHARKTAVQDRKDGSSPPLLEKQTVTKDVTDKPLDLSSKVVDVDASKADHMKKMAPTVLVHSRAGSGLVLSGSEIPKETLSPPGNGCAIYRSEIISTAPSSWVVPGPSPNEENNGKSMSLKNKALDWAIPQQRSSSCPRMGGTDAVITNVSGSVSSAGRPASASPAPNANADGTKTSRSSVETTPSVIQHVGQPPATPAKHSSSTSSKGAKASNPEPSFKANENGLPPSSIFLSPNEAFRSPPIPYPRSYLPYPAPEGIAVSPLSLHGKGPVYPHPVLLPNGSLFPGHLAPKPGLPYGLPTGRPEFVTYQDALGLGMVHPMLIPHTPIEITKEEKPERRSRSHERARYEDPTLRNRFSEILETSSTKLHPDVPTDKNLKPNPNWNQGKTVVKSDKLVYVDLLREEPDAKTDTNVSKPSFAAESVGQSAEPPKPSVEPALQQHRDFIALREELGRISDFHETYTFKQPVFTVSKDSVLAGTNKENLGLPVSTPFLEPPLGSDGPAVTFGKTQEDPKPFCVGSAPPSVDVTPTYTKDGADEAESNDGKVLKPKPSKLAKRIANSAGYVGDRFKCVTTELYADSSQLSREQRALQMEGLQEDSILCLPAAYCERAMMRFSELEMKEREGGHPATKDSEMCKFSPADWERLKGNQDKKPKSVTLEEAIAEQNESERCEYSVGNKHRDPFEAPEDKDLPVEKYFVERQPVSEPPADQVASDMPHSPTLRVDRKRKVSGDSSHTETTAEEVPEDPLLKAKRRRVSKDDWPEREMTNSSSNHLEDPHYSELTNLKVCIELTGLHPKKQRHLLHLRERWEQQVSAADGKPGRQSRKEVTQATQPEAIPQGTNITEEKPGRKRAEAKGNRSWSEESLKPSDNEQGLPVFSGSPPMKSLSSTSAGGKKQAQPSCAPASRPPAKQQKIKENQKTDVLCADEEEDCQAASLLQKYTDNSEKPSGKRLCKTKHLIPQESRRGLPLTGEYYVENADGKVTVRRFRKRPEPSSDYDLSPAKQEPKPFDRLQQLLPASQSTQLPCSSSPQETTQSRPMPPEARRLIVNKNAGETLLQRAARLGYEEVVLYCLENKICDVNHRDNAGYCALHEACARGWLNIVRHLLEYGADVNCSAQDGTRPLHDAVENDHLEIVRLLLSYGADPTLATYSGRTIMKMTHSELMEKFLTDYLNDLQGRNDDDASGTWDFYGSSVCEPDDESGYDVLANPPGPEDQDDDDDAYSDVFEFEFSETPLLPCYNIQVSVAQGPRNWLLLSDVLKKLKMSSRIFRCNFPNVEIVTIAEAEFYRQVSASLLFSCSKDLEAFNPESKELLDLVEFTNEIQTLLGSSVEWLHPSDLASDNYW

## BCL6 BTB (from UniProt P41182)
  Kd: 6 µM
